Blank lines part the entries; values can stand above or below the molecule they belong to.
How the values were obtained:
[1] = target: recombinant human pancreatic glucokinase (human) (UniProt P35557)
[2] = target: recombinant human Bcl-xL, Δ45–84, Δ210–233 variant (human) (UniProt Q07817); assay: fluorescence polarisation; competition: 200 nM f-BH3, 50 nM Bcl-xL, BAD forms varied 0–50 μM; room temperature
[3] = target: recombinant human pancreatic glucokinase (human) (UniProt P35557); remark: listed apart in the source
[4] = target: recombinant human BAD-GST fusion polypeptide (human) (UniProt Q92934); assay: ITC; Bcl-xL (100 μM) titrated in 4 μL injections into BAD-GST (10–18 μM) in the cell; 25°C; BAD buffer (0.1 M Tris, 0.1 M KCl, 0.5 M arginine, 2.5 mM CHAPS, 5 mM TCEP, 10% glycerol, pH 8.5)
[5] = target: recombinant human BAD-GST fusion polypeptide (human) (UniProt Q92934); assay: AUC; sedimentation velocity; single proteins or 1:1 molar mixtures incubated on ice 30 min; BAD buffer pH 8.5; 20°C
[6] = target: recombinant human BAD-GST fusion polypeptide (human) (UniProt Q92934); assay: SEC; HiPrep 16/60 Sephacryl S-200 HR, calibrated; single proteins or equimolar mixtures incubated on ice 30 min; BAD buffer pH 8.5; 4°C
[7] = target: recombinant human pancreatic glucokinase (human) (UniProt P35557); remark: listed apart in the source
BAD-knockout hepatocytes = settings: ref [9]; cited from earlier work
Description: Phosphorylation of BAD modulates its participation in apoptosis and glucose metabolism. High glucose concentrations stimulate BAD phosphorylation at three serine residues, resulting in reduced pro-apoptotic activity. In particular, phosphorylation at Ser155, within the BH3 domain of murine BAD, prevents interaction with Bcl-xL, thereby quenching BAD’s apoptotic activity. […] Moreover, i ...

Bcl-xL [8] = target: T1, Bcl-xL (Homo sapiens, UniProt Q07817, DEL45-84); assay: Analytical ultracentrifugation sedimentation velocity of 1:1 mixture BAD-GST and Bcl-xL; assay type: binding; settings: 1:1 mixture of BAD-GST and Bcl-xL, 20°C, 50,000 x g, BAD buffer pH 8.5
T1 construct: made in house
Experimental: Sedimentation velocity experiments were conducted with an Optima XLI Ultracentrifuge (Beckman Coulter) using a four-hole rotor with three 420 μL samples in standard double-sector Epon centerpieces equipped with sapphire windows. Absorbance and interference data were collected simultaneously. Size-exclusion purified proteins were concentrated to OD280 nm = 0.3–1.0 prior to centrifugation. For complex formation, proteins were mixed in a 1:1 molar ratio in BAD buffer (0.1 M Tris, 0.1 M KCl, 0.5 M arginine, 2.5 mM CHAPS, 5 mM TCEP, 10% glycerol, pH 8.5) and incubated on ice 30 min prior to the start of the experiment. Experiments were carried out at 20°C and 50,000 x g. Data were analyzed with Ultrascan III software using a minimum of 70 scans per sample for analysis. Van Holde-Weischet analysis was performed to obtain S20,W values.

[9] = Circular dichroism spectroscopy (secondary structure); assay type: physicochemical; settings: far UV CD, 25°C, pH 7.8, 3–15 μM, CDPro
Experimental: Proteins were dialyzed overnight into potassium phosphate buffer (50 mM, pH 7.8) containing KCl (50 mM), glycerol (5% v/v), and TCEP (4 mM). CD spectra were recorded on an AVIV 202 CD spectrometer at 25°C with protein concentrations ranging from 3–15 μM. Spectra were recorded from 200–260 nm in 10 mm pathlength cuvettes using a 1 nm step resolution and 3 s integration time. Three scans were recorded per sample, averaged, and baseline subtracted with appropriate buffer controls. CD signals were converted to molar ellipticity and deconvoluted using CDPro Software.

Bcl-xL [10] = target: T1, Bcl-xL; assay: Fluorescence polarization competition with f-BH3 for binding to Bcl-xL; settings: ITC and fluorescence polarization assays
Experimental: Exon 1 of human bcl-xl lacking the C-terminal residues 189–233 was obtained from Stanley Korsmeyer (Addgene plasmid 8755) and site-directed mutagenesis was performed to create the Δ45–84, Δ210–233 variant. Bcl-xL was expressed and purified using a modified procedure described previously. Briefly, Bcl-xL was purified by nickel affinity chromatography and dialyzed against potassium phosphate buffer (20 mM, pH 7.4) containing NaCl (50 mM), EDTA (1 mM), and DTT (10 mM). Protein was applied to a Superdex 200 10/30 HR size-exclusion column, at a flow rate of 0.02 mL/min, to remove aggregate and oligomers prior to binding assays.
A fluorescence polarization assay developed by Zhang, et al. was utilized to measure interactions between BAD and its binding partners. Two 21-residue FITC-labeled peptides containing the BH3 domain of BAD were synthesized and purified to >95% by Peptide2.0 (f-BH3 = NLWAAQRYGRELRRMSDK(FITC)FVD; f-pBH3 = NLWAAQRYGRELRRM(p)SDK(FITC) FVD). Polarization was measured at room temperature with an excitation wavelength of 485 nm and an emission wavelength of 530 nm using a SpectraMax M5 microplate reader (Molecular Devices). Experiments to measure binding constants of the fluorescent peptides to Bcl-xL or GCK were performed in black 96-well plates. Each well contained 15 nM peptide, 60 μL BAD buffer (0.1 M Tris, 0.1 M KCl, 0.5 M arginine, 2.5 mM CHAPS, 5 mM TCEP, 10% glycerol, pH 8.5) and variable concentrations of Bcl-xL (0–2.25 μM) or GCK (0–400 μM) in assay buffer (20 mM phosphate buffer, pH 7.4, 1 mM EDTA, 50 mM NaCl, 10 mM DTT) in a final volume of 120 μL. High GCK concentrations were chosen in an effort to detect a signal indicating a binding event. Assays containing GCK also contained 250 mM glucose. […] Plates were incubated at room temperature in the dark for 15 min prior to polarization measurements.

human pancreatic GCK = target: T2, human pancreatic GCK (Homo sapiens, UniProt P35557); assay: Isothermal titration calorimetry with GCK; assay type: binding; settings: GCK (100 μM) titrated into S118D BAD-GST (10–15 μM), 13 μL injections, BAD buffer pH 8.5, 25°C
T2 construct: hexahistidine (N); made in house; host or cells: glucokinase auxotroph BM5340(DE3)
T2 sequence (P35557 1-465): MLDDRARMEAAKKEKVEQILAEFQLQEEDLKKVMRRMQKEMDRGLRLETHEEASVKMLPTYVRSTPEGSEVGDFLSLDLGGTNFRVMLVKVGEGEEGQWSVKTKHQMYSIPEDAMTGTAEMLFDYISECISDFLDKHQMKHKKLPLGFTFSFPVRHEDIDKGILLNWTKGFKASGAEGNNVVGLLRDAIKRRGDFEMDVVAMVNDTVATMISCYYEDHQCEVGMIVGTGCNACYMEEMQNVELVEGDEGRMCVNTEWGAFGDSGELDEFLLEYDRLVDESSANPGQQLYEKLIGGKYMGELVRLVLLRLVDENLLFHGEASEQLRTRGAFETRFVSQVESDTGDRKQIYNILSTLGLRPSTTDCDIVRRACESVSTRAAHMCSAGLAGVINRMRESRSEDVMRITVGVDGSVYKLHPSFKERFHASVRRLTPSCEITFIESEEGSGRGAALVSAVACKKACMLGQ
Experimental: Recombinant human pancreatic GCK containing an N-terminal hexahistidine tag was produced in the glucokinase auxotroph BM5340(DE3) and purified using a previously described procedure. TEV protease was expressed as a GST-fusion protein from a pGEX plasmid encoding the S219V variant, provided by David Waugh (Addgene plasmid 8827). Expression was induced with IPTG (1 mM) for 4 h at 30°C. Cell pellets were resuspended in Tris buffer (50 mM, pH 8.0) containing NaCl (100 mM), glycerol (10% v/v), benzamidine (1 mM) and dithiothreitol (10 mM) and lysed via French Press. Polyethyleneimine (0.1%) was added to the lysate and protein was purified on a glutathione-affinity column (GSTrap, GE Sciences). TEV protease was flash frozen and stored at -80°C for up to 1 month.
Isothermal titration calorimetry was performed at 25°C using a MicroCal VP-ITC (GE Healthcare) instrument. Bcl-xL (100 μM) in BAD buffer (0.1 M Tris, 0.1 M KCl, 0.5 M arginine, 2.5 mM CHAPS, 5 mM TCEP, 10% glycerol, pH 8.5) was titrated into the calorimeter cell containing size-exclusion chromatography purified BAD-GST (10–18 μM) in 4 μL injections. A 21-residue phosphorylated peptide containing the BH3 domain of BAD was synthesized and purified to >95% by Peptide2.0 (pBH3 = NLWAAQRYGRELRRM(p)SDKFVD). The peptide (300 μM) in potassium phosphate buffer (25 mM) containing KCl (25 mM), TCEP (4 mM) and DMSO (5%) with and without glucose (200 mM) was titrated into the cell containing GCK (10 μM) previously dialyzed against the same buffer. GCK (100 μM) in BAD buffer was titrated into the cell containing S118D BAD-GST (10–15 μM) in 13 μL injections. Data were analyzed using Origin software.

GCK = target: T3, GCK (Homo sapiens, UniProt P35557); assay: GCK activity, microplate G6PDH-linked assay as described by Szlyk et al. (37°C); assay type: biochemical; settings: S118D BADGST 5 μM, or pBH3 5 μM; GCK 7.5 nM, 96 well plate; S2 Fig
T3 construct: hexahistidine (N); made in house; host or cells: glucokinase auxotroph BM5340(DE3)
T3 sequence (P35557 1-465): T2 sequence (P35557 1-465)
Experimental: Steady state kinetics were also performed as described by Szlyk, et al.[13]. Briefly, G6PDH-linked assays were performed in clear 96-well plates at 37°C with a SpectraMax M5 microplate reader (Molecular Devices) recording absorbance at 340 nm every 30 s. Reaction mixtures contained GCK (7.5 nM), HEPES (100 mM, pH 7.4), KCl (150 mM), MgCl2(6 mM), DTT (1 mM), NAD (1 mM), BSA (0.05%), G6PDH (2.5 U), glucose (0.5–100 mM), and ATP (5 mM) in the presence or absence of BAD-GST S118D variant (5 μM) or phosphorylated BAD BH3 peptide (5 μM) in a final volume of 100 μL.
GCK (7.5 nM) was assayed in the presence of A. S118D BADGST (5 μM) or B. pBH3 (5 μM) in a 96 well plate using a microplate reader. Buffer conditions were as follows: Ref [13]: 100 mM Hepes, pH 7.4; 150 mM KCl; 1 mM NAD+; 0.05% BSA; 6 mM MgCl2; 1 mM DTT; 2.5 U G6PDH; 5 mM ATP. Optimal GCK conditions: 100 mM Hepes, pH 7.4; 150 mM KCl; 1 mM NADP+; 6 mM MgCl2; 10 mM DTT; 1.5 U G6PDH; 5 mM ATP. (EPS) Click here for additional data file.

increase in GCK activity at glucose below the K0.5 value with phosphorylated BAD (> 2 μM) [1]: 15%
IC50 [2]: 1600 nM
increase in GCK activity over unmodified BAD-GST at 1.0 mM glucose [3]: 5%
Molecule: BAD-GST phosphorylated in vitro with PKAc (from UniProt Q92934 1-168) (natural protein)

Sedimentation coefficient (Bcl-xL [8]): 1.3
B2: Bcl-xL: recombinant human Bcl-xL Δ45–84, Δ210–233 variant (protein)
chain: MSQSNRELVVDFLSYKLSQKGYSWSQFSDVEENRTEAPEGTESEAVKQALREAGDEFELRYRRAFSDLTSQLHITPGTAYQSFEQVVNELFRDGVNWGRIVAFFSFGGALCVESVDKEMQVLVSRIAAWMATYLNDHLEPWIQENGGWDTFVELYGNNAAAESRKGQER
modifications: left off: His tag (from the nickel affinity chromatography), end not stated, state not stated
notes: recombinant human Bcl-xL Δ45–84, Δ210–233 variant
Random coil content [9]: roughly 30%
α-helical content [9]: 43%
β-sheet content [9]: 14%

Second part, the molecule before the results:

Molecule: recombinant human Bcl-xL, Δ45–84, Δ210–233 variant (from UniProt Q07817-1 1-209) (domain or fragment)
Kd [4]: 7 nM
stoichiometry N (Bcl-xL per BAD-GST dimer) [5]: 2

Molecule: recombinant human BAD-GST fusion polypeptide (from UniProt Q92934 1-168) (natural protein)
stoichiometry N [5]: 2
stoichiometry N [6]: 2
percent increase in GCK rate, glucose 0.5–1.0 mM, largest at 0.8 mM glucose with BAD-GST ≥ 2 μM [7]: 10%
IC50 [2]: 130 nM

B1: S155D BAD variant: phosphomimic murine BAD variant, ref 9 (protein, UniProt Q61337 1-204, looked up, variant S155D)
Bcl2-associated agonist of …: MGTPKQPSLAPAHALGLRKSDPGIRSLGSDAGGRRWRPAAQSMFQIPEFEPSEQEDASATDRGLGPSLTEDQPGPYLAPGLLGSNIHQQGRAATNSHHGGAGAMETRSRHSSYPAGTEEDEGMEEELSPFRGRSRSAPPNLWAAQRYGRELRRMDDEFEGSFKGLPRPKSAGTATQMRQSAGWTRIIQSWWDRNLGKGGSTPSQ
Effect on GCK activity in hepatocytes (BAD-knockout hepatocytes): stimulates GCK activity in hepatocytes
Restoration of normal glycolytic metabolism in BAD-knockout hepatocytes (BAD-knockout hepatocytes): normal glycolytic metabolism can be restored

B3: S118D variant: S118D phosphomimic variant of BAD-GST (protein)
chain: MFQIPEFEPSEQEDSSSAERGLGPSPAGDGPSGSGKHHRQAPGLLWDASHQQEQPTSSSHHGGAGAVEIRSRHSSYPAGTEDDEGMGEEPSPFRGRSRSAPPNLWAAQRYGRELRRMDDEFVDSFKKGLPRPKSAGTATQMRQSSSWTRVFQSWWDRNLGRGSSAPSQ
modifications: left off: His6, N-terminal, state not stated | GST, C-terminal, kept
Ability to interact with Bcl-xL (in words) (Bcl-xL [10]): significantly impaired in their ability to interact with Bcl-xL
Binding to GCK by ITC (human pancreatic GCK): no detectable binding event
Effect on GCK kinetics under Szlyk et al. buffer conditions (GCK): did not increase BAD’s effects on GCK kinetics
